Target: Mutant H2A.Z^AP3-YFP (mouse)
Assay: co-IP; immunoprecipitation with GFP antibodies of the YFP-tagged histone from dox-induced transgenic ESCs (endogenous H2A.Z knockdown background), immunoblot of the partners; uninduced cells (No DOX) as negative controls; densitometry in ImageJ

fold of NAP1L1 bound against H2A.Z^WT: < 2 fold
B1: NAP1L1 (natural protein)
chain: MADIDNKEQSELDQDLEDVEEVEEEETGEETKIKARQLTVQMMQNPQILAALQERLDGLVDTPTGYIESLPKVVKRRVNALKNLQVKCAQIEAKFYEEVHDLERKYAVLYQPLFDKRFEIINAIYEPTEEECEWKPDEEDEVSEELKEKAKIEDEKKDEEKEDPKGIPEFWLTVFKNVDLLSDMVQEHDEPILKHLKDIKVKFSDAGQPMSFVLEFHFEPNDYFTNEVLTKTYRMRSEPDDSDPFSFDGPEIMGCTGCQIDWKKGKNVTLKTIKKKQKHKGRGTVRTVTKTVSNDSFFNFFAPPEVPENGDLDDDAEAILAADFEIGHFLRERIIPRSVLYFTGEAIEDDDDDYDEEGEEADEEGEEEGDEENDPDYDPKKDQNPAECKQQ

— article PMC3749939
